The results in this text go back to patent US20250197487A1 (AKESO BIOPHARMA, published 2025).

Assay [1] has as its target T1, PD-1 on the surface of 293T-PD-1 cells (UniProt Q15116 25-288, limits assumed).
T1 construct: whole, on cells
As to the kind of experiment: FACS, 293T-PD-1 cells. The protocol:
(§1) Then PBS was used for washing, and 300 μL of PBSA was used to resuspend the cells, and fluorescence signals (MFI) were detected with FITC channel on a flow cytometer.
(In general: In flow cytometry, cells or beads pass a laser one at a time.)

The target of assay [2] is T1, PD-1 on the surface of 293T-PD-1 cells. As to the kind of experiment: FACS (2nd), 293T-PD-1 cells. The method, then: as §1
Assay [3] deals with T2, fusion protein PD-1-mFc (human, UniProt Q15116 25-170).
T2 construct: also called human PD-1-mFc; not shown: mFc (Fc of mouse IgG)
As to the kind of experiment: indirect ELISA, antibody 0 (blank). For orientation: ELISA stands for enzyme-linked immunosorbent assay.

The target of assay [4] is T1, PD-1 on the surface of 293T-PD-1 cells. As to the kind of experiment: FACS, 293T-PD-1 cells, antibody 100 nM. The protocol:
as §1

Assay [5] deals with T2, fusion protein PD-1-mFc. Nature of the assay: indirect ELISA, PD-1-mFc coat 0.5 µg/mL. The method, then:
(§2) The microplate was coated with human PD-1-mFc and incubated overnight at 4° C. After being blocked with 1% BSA at 37° C. for 2 hours, the microplate was added with antibody, and then incubated at 37° C. for 30 minutes. […] After the microplate was washed and patted dry, TMB (Neogen, 308177) was added for color developing for 5 minutes, and then stop solution was added to terminate the color development. Then the microplate was put into a microplate reader immediately, and the OD value of each well in the microplate was read at 450 nm. SoftMax Pro 6.2.1 was used to analyze and process the data.

Assay [6] concerns the target T1, PD-1 on the surface of 293T-PD-1 cells. Nature of the assay: FACS, 293T-PD-1 cells, antibody 0.14 nM. The protocol:
as §1

Assay [7] shares this target. Nature of the assay: FACS, 293T-PD-1 cells, antibody 0.41 nM. The protocol: as §1
The target is the same in assay [8]. As to the kind of experiment: FACS, 293T-PD-1 cells, antibody 1.23 nM. The method, then: as §1
For assay [9] the target is unchanged. As to the kind of experiment: FACS, 293T-PD-1 cells, antibody 3.70 nM. The method, then: as §1
For assay [10] the target is unchanged. Nature of the assay: FACS, 293T-PD-1 cells, antibody 11.11 nM. The protocol:
as §1

For assay [11] the target is unchanged. As to the kind of experiment: FACS, 293T-PD-1 cells, antibody 33.33 nM. The protocol:
as §1

The target is the same in assay [12]. As to the kind of experiment: FACS (2nd), 293T-PD-1 cells, antibody 11 nM. The protocol: as §1
The target is the same in assay [13]. As to the kind of experiment: FACS (2nd), 293T-PD-1 cells, antibody 30 nM. The protocol:
as §1

Assay [14] shares this target. As to the kind of experiment: FACS (2nd), 293T-PD-1 cells, antibody 100 nM. The method, then:
as §1

The target is the same in assay [15]. Nature of the assay: FACS (2nd), 293T-PD-1 cells, antibody 3.7 nM. The method, then:
as §1

The target in assay [16] is T2, fusion protein PD-1-mFc. As to the kind of experiment: indirect ELISA (2nd), PD-1-mFc coat 0.5 µg/mL. The protocol:
as §2

For assay [17], the target named is T1, PD-1 on the surface of 293T-PD-1 cells. Nature of the assay: FACS (2nd), 293T-PD-1 cells, antibody 0.14 nM. The method, then: as §1
The target is the same in assay [18]. As to the kind of experiment: FACS (2nd), 293T-PD-1 cells, antibody 0.41 nM. The method, then:
as §1

Assay [19] shares this target. As to the kind of experiment: FACS (2nd), 293T-PD-1 cells, antibody 1.23 nM. The protocol: as §1
Assay [20] has the same target. Nature of the assay: FACS (2nd), 293T-PD-1 cells, antibody 0.014 nM. The method, then: as §1
Assay [21] shares this target. As to the kind of experiment: competitive FACS (2nd), 293T-PD-1 cells, competitor PD-L1. The method, then: (§3) Then 500 μL of 1% PBSA was added, and the mixture was centrifuged at 5600 rpm for 5 minutes to remove the supernatant. 100 μL of FITC […] anti mouse antibody diluted at a ratio of 1:500 was then added into each tube, and the mixture was incubated on ice for 40 minutes in the absence of light after being mixed well. Then the mixture was centrifuged, washed and resuspended, and then transferred to a loading tube for testing.

Assay [22] has the same target. Nature of the assay: competitive FACS, 293T-PD-1 cells, competitor PD-L1-mFc 20 nM. The method, then: as §3
Assay [23] has as its target T2, fusion protein PD-1-mFc. Nature of the assay: BLI (Fortebio), antibody on AHC sensor, PD-1-mFc 0.62-50 nM, 1:1 fit. The method, then:
The sample dilution buffer was PBS (0.02% Tween-20, 0.1% BSA, pH7.4). 5 μg/mL antibody was immobilized to an AHC sensor with the immobilization height being about […]. The sensor was equilibrated in a buffer for 60 s, and the antibody immobilized to the sensor bound to PD-1-mFc at a concentration of 0.62-50 nM (three-fold gradient dilution) for 120 s, and then the antigen and antibody dissociated in the buffer for 300 s. The data were analyzed by 1:1 model fitting to obtain affinity constants. The data acquisition software was Fortebio Data Acquisition 7.0, and the data analysis software was Fortebio Data Analysis 7.0.
(In general: BLI is a label-free optical method that tracks binding on a fibre tip over time.)

For another assay, the target named is T3, fusion protein PD-1-hFc (UniProt Q15116 25-170).
T3 construct: not shown: hFc (Fc of human IgG)
Nature of the assay: competitive ELISA, PD-1-hFc coat 0.5 µg/mL, competitor PD-L1-mFc 0.3 µg/ml. The protocol: The microplate was coated with PD-1-hFc and incubated overnight at 4° C. […] After incubation at 37° C. for 30 minutes, the microplate was washed and patted dry. Then enzyme-labeled secondary antibody was added, and the microplate was incubated at 37° C. for 30 minutes. After the microplate was washed and patted dry, TMB was added for color developing for 5 minutes, and then stop solution was added to terminate the color development. […] SoftMax Pro 6.2.1 was used to analyze and process the data.

T1 sequence (Q15116 25-288 limits assumed): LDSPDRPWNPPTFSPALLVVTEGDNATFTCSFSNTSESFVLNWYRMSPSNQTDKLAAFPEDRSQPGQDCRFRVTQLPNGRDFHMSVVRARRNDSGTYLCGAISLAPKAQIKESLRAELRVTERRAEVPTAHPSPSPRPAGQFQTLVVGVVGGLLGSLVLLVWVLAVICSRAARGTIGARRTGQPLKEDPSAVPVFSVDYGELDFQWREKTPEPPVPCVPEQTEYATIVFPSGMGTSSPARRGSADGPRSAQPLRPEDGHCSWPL
T2 sequence (Q15116 25-170): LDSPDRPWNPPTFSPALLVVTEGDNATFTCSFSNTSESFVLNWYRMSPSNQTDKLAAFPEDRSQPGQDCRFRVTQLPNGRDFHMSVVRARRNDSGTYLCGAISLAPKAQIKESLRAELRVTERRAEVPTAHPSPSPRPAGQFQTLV
T3 sequence (Q15116 25-170): as above

B1: anti-PD-1 humanized antibody 14C12H1L1 (antibody, V domains shown)
VH: EVQLVESGGGLVQPGGSLRLSCAASGFAFSSYDMSWVRQAPGKGLDWVATISGGGRYTYYPDSVKGRFTISRDNSKNNLYLQMNSLRAEDTALYYCANRYGEAWFAYWGQGTLVTVSS
VL: DIQMTQSPSSMSASVGDRVTFTCRASQDINTYLSWFQQKPGKSPKTLIYRANRLVSGVPSRFSGSGSGQDYTLTISSLQPEDMATYYCLQYDEFPLTFGAGTKLELK
As for B1, the half-maximal effective concentration (EC50) (in general, the concentration needed to bring the measured effect to its halfway point) turned out to be 2.9 nM in assay [1]; 3.61 nM in assay [2]; 0.037 nM with fusion protein PD-1-mFc [5]; 0.045 nM in the assay with fusion protein PD-1-mFc [16]; 9.21 nM in assay [21]; 4.37 nM in assay [22]. A half-maximal response with fusion protein PD-1-hFc (EC50) required 0.745 nM. Also, the “OD 450 nm” value in the assay with fusion protein PD-1-mFc [3] stood at 0.053. For the same molecule, the MFI in assay [4] is 671; in assay [6] it was 48.1; in assay [7], 99.7; in assay [8], 202; in assay [9], 409; in assay [10], 600. Besides, the MFI was found to be 655 in assay [11]; 868 in assay [12]; 831 in assay [13]; 814 in assay [14]; 423 in assay [15]; 29.6 in [17]. The MFI in assay [18] was 69.2; in assay [19], 176; in assay [20] it was 7.4. In the assay with fusion protein PD-1-mFc [23], binding was put at a Kd of 0.164 nM.
